From paper PMC9629889

Tests used:
Experiment in all cases: MST; Monolith NT.115; TaMTB labelled with the protein labelling kit RED in PBS, ligand (NIb) in a concentration gradient; Kd-Fit; three repeats
[1] = molecular target: TaMTB(SNP176^A) protein purified from E. coli (Triticum aestivum)
[2] = molecular target: TaMTB(SNP176^C) protein purified from E. coli (Triticum aestivum)
[3] = molecular target: TaMTB-His (from E. coli) (Triticum aestivum (cv. Yangmai158 cDNA))

B1: NIb protein purified from E. coli (natural protein)
chain: ASDILSKINNSILGFGSDLKGQLVQPITPALRTRFEALFGGGSFELVGTMNKGLIDKHTIVGENDNVHDFMREHPTFAWLQGFMDEYAPSVLNYTAYYKDLCKYNRKKHQLSFNPHELRSATAGMIRMLEDAGLTQGDVRTPQQVVSDMQWNTSAGPSYQGKKRDVCAHLSEQEVLHLAETSRQQFLACNSIGIWNGSLKAELRTIEKVEAEKTRVFTASPITSLFAMKFYVDDFNKKFYATNLKAPHTVGINKFSRGWEMLHDKLNRPGWLHGSGDGSRFDSSIDPFFFDIIKEIRKHFLPVEHHRAIDLIYDEILNTNICLANGMVIRKNVGNNSGQPSTVVDNTLVLMVSFLYAYIHKTGDHMLKKLNDRFVFVCNGDDNKFAISPEFDAEFGHDFSPELTELGLTYEFDDITDDICANPYMSLTMVRTPFGIGFSLPVERIVAIMQWAKKGGVLHSYLAGISAIYESFNTPKLFKSVYAYLLWLTEEHGSDILAAMTGTATALPIPSMLDVYRLHYGDSSIELQ
modifications: not checked
For B1, the Kd [1] was 730 nM, the Kd [2] was 110 nM and the Kd [3] was 1120 nM.
